Laboratory results reported in the nanobody polyreactivity screen of Harvey et al. (2022).

Assay: yeast display, Sf9 membrane polyspecificity reagent, FACS + sequencing; frameworks hold sequencing errors
Procedure, shortened: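 Polyreactivity labels are assigned by the sorting gate from which each nanobody was recovered. The gates were low and high (top ~1%), set on anti-HA fluorescence for expression and streptavidin fluorescence for reagent binding. Before sorting, galactose-induced (36–48 hours) yeast display cells were stained for 1 hour at 4 °C with 10% biotinylated, detergent-solubilized Sf9 membrane reagent.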

Row | Sequence | polyreactivity (PSR sort gate)
1 | QVQLVESGGGLVQAGGSLRLSCAASGFTFRDNAMGWYRQAPGKERELVAAISKSGGTTYYADSVKGRFTISRDNAKNTVYLQMNSLKPEDTAVYYCNAVNRYSGHSYYWGQGTQVTVSS | low polyreactivity
2 | QVQLVESGGGLVQAGGSLRLSCAASGFTFRDYAMGWYRQAPGKERELVAAISRSGDSTYYADSVKGRFTISRDNAKNTVYLQMNSLKPEDTAVYYYAAKRRYTTYDYWGQGTQVTVSS | high polyreactivity
3 | QVQLVESGGGLVQAGGSLRLSCAASGFTFRDYSMGWYRQAPGKERELVAAMSFSGGRTFYADSVKGRFTISRDNGKNTVYLQMNSLKPEDTAVYFCNAQYLTSRYYPRRNLDYWGQGTQVTVSS | high polyreactivity
4 | QVQLVESGGGLVQAGGSLRLSCAASGFTFRFYAMGRYRQAPGKERELVAAISGSGGSTYYADSVKGRFTISRDNAKNTVFLQMNSLKPEDTAVYYCNAGRWLYWYDRSDYWGQGTQVTVSS | high polyreactivity
5 | QVQLVESGGGLVQAGGSLRLSCAASGFTFRFYAMGWYRQAPGKETELVAAISSSGSRTYYADSVKGRFTISRDTAKNTVYFQMHSLKPEDTAVYYCNTVTSQDRYDYWGQGTHVTVSS | high polyreactivity
6 | QVQLVESGGGLVQAGGSLRLSCAASGFTFRFYVMGWYRQAPGKERELVAAISKRGASTSYADSVKGRFTISRDNAKNTVYLQMNSLKPEDTAVYYCAASAKRGEMGYWGQGTQVTVSS | high polyreactivity
7 | QVQLVESGGGLVQAGGSLRLSCAASGFTFRGNAMGWYRQAPGKERELVAAITRRGGSTYYADSVKGRFTISRDNAKNTVYLQMNSLKPEDTAVYYCARDSPRPPQSSRMAYWGQGTQVTVSS | high polyreactivity
8 | QVQLVESGGGLVQAGGSLRLSCAASGFTFRGNAMGWYRQAPGKERELVAAITSSDDSTYYADSVKGRFTISRDYAKNTVYLQMNSLKPEDTAVYYCAAEGVHYAGDYGTGYDYWGQGTQVTVSS | low polyreactivity
9 | QVQLVESGGGLVQAGGSLRLSCAASGFTFRGNVMGWYRQAPGKERELVAGISSTGSGRTYYADSVKGRFTISRDNAKNTVYLQMNSLKPEDTAVYYCAASRTLRKHRYEYWGQGTQVTVSS | high polyreactivity
10 | QVQLVESGGGLVQAGGSLRLSCAASGFTFRGYAMGWYRQAPGKERELVASITYRGGSTYYADSVKGRFTISRDNAKNTVYLQMNSLKPEDTAVSYCNAGFGGRRRQDAFIGTSIYDYWGQCTQVTVSS | low polyreactivity
11 | QVQLVESGGGLVQAGGSLRLSCAASGFTFRHNTMGWYRQAPGKERELVAAISIGGRTYYADSVKGRFTISRDNAKNTVYLQMNSLKTEDSAVYYCANLSGGQSPGYDYWGQGTQVTVSW | high polyreactivity
12 | QVQLVESGGGLVQAGGSLRLSCAASGFTFRHYAMGWYRQAPGKERELVAGITIRGTTYYADSVKGRFTISRDNAKNTVYLQMNSLKPEDTAVYYCAAAWRLGHLRFNSWGQGTQVTVSS | high polyreactivity
13 | QVQLVESGGGLVQAGGSLRLSCAASGFTFRINAMGWYRQAPGKERELVAAISWSGGSTYYADSVKGRFTISRDNAKNTVYLQMNSLKPEDTAFYYCNKVQSSRYRSQRTFQYGYWGQGTQVTVSS | high polyreactivity
14 | QVQLVESGGGLVQAGGSLRLSCAASGFTFRIYDMGWYRQAPGKERELVAAITNGGSTDYAYSVKGRFTISRDNAKNTVYLQMNSLKTEDNAVYYCAADVTYQVYDLVSVWYDYWGQGTQVTVSS | low polyreactivity
15 | QVQLVESGGGLVQAGGSLRLSCAASGFTFRKNAKGWYRQAPGKERELVAAISSGSGSTYYADSVKGRFTISRDNAKNTVYLQMNSLKPEDNAVYYCNAEAYYTTGYPTSDVFDRYDYWGQGTQVTVSS | low polyreactivity
16 | QVQLVESGGGLVQAGGSLRLSCAASGFTFRKNAMGWYRQAPGKERELVAAISSGTSTYYADSVKGRFTISRDNAKNTVYLQMNSLKPEDTAVYYCNAVSRKVYPGPMDYWGQGTQVTVSS | high polyreactivity
17 | QVQLVESGGGLVQAGGSLRLSCAASGFTFRKYAMGWYRQAPGKERELVAGISWSGGTTYYADSVKGRFTISRDNAKNTVYLQMNSLKPEDTAVYYCNAKRVQVFAGYSYDYWGQGTQVTVSS | high polyreactivity
18 | QVQLVESGGGLVQAGGSLRLSCAASGFTFRKYTMGWYRQAPGKERELVAAISSGFSTNYADSVKGRFTISRDNAKNSVYLQMNSLKPEDTAVYYCAARGGYYQGRYKYGYWGQGTQVTVSS | high polyreactivity
19 | QVQLVESGGGLVQAGGSLRLSCAASGFTFRLYTMGWYRQAPGKDRELVAGISTSGGSTYYADSVKGRFTISRDNAKNTVYLQMNSLKPEDTAVYYCAAQAFTSYDYWGQGTQVTVSS | high polyreactivity
20 | QVQLVESGGGLVQAGGSLRLSCAASGFTFRLYTMGWYRQAPGKERELVAAITYSGDSTYYADSVKGRFTISRDNAKNTVYLQMNSLKPEDTAVYYCAARKYYARYYWGQGTQVTVSS | high polyreactivity
21 | QVQLVESGGGLVQAGGSLRLSCAASGFTFRLYVMGWYREAPGTERELVAALSSRGGSTYYADSVKGRFTISRDNAKYTVYLQMNRLKPDDTAFYYCAADRPRCRETVDYWGHGTQVTVSS | high polyreactivity
22 | QVQLVESGGGLVQAGGSLRLSCAASGFTFRNYAMGWYRQAPGKEREFVAAISFSGGRTYYADSVKGRFTISRDNAKITVYLQMNSLKPEDTAVYFCAKKSYSKYEYWGQGTQVTVSS | low polyreactivity

Row | Sequence | polyreactivity (PSR sort gate)
23 | QVQLVESGGGLVQAGGSLRLSCAASGFTFRNYAMGWYRQAPGKERELVAVIDWSGGRTYYADSVKGRFTISRDNAKNTVYLQMNSLKPEDTAVYYCNAVYGYRAYGGYGYWGQGTQVTVSS | high polyreactivity
24 | QVQLVESGGGLVQAGGSLRLSCAASGFTFRQNAMGWYRQAPGKERELVAAISYSGGRTYYADSVKGRFTISRDNEMNTVYLQMNRLKPEDTAVYYCAVTYGIDYGYEYWGQGTQVTVSS | high polyreactivity
25 | QVQLVESGGGLVQAGGSLRLSCAASGFTFRRNAMGWYRQAPGKEREFVAAITRSGGSTYYADSVKGRFTISRDNAKNTVYLQMNSLKPEDTAVYYCAADLPRWGSYGYGKMDHWGQGTQVTVSS | high polyreactivity
26 | QVQLVESGGGLVQAGGSLRLSCAASGFTFRRNAMGWYRQAPGTERELVAAINVRDGSTYYADSVKGRFTISRDNAKNTVYVQMNSLKPEDTAVYYCAAEFFQGYYWYYYWGQGTQVTVSS | high polyreactivity
27 | QVQLVESGGGLVQAGGSLRLSCAASGFTFRRYAMGWYRPAPGKERELVAAITPNGGSTYYADSVKGRFTISRDNAMNNFYLQMNRLKPEDTAVYYCNAVLYTPVYDGFDSWGQGTQVTVSS | high polyreactivity
28 | QVQLVESGGGLVQAGGSLRLSCAASGFTFRRYAMGWYRQAPGKERELVAAINKSGGSTYYADSVKGRFTISRDNAKNTVYLQMNSLKPEDTAVYYCAKPLTAYSGFDHWGQGTQVTVSS | high polyreactivity
29 | QVQLVESGGGLVQAGGSLRLSCAASGFTFRRYAMGWYRQAPGKERELVAAISGRGGSTYYADSVKGRFTISRDTAKNTVYLQINSLKPEDTAVYYCNDDRYVRWTPGDYWGQGTQVTVSS | high polyreactivity
30 | QVQLVESGGGLVQAGGSLRLSCAASGFTFRRYAMGWYRQAPGKERELVAAISRSGGRTYYADSVKGRFTISRDNAKNTVYLQMNSLKPEDTAVYYCAARYFKPGGAYDSWGQGTQVTVSS | high polyreactivity
31 | QVQLVESGGGLVQAGGSLRLSCAASGFTFRRYAMGWYRQAPGKERELVAAITYSGTRTYYADSVKGRFTISRDIAKNTVYLEMNSLSPEDTAVYYCNAGVGYFVGTYYGFLPYDYWGQGTQVTVSS | high polyreactivity
32 | QVQLVESGGGLVQAGGSLRLSCAASGFTFRRYDMGWYRQAPGKERELVATINRGGSTDYADSVKGRFTISRDNAKNTVYLQLNSLKPEDTAVYYCATRYYSSRTWSEYYYWGQGTQVTVSS | high polyreactivity
33 | QVQLVESGGGLVQAGGSLRLSCAASGFTFRSNAMGWYRQAPGKERELVATISSGGSTYYADSVKGRFTISRDNAKNTVYLQMNSLKPEDTAVYYCAADDLGWWFYSGGEDYDYWGQGTQVTVSS | low polyreactivity
34 | QVQLVESGGGLVQAGGSLRLSCAASGFTFRSYAMGCYRQAPEKEMELVAAISRRGGSTYYADSVKGRFTISRDNAKNTVYLQMNSLKPEDTAVYFCAKDGTGAGTYDYWGQGTQVTVSS | low polyreactivity
35 | QVQLVESGGGLVQAGGSLRLSCAASGFTFRSYAMGWYRQAPGKERELVAAITSTGGRTYYADSVKGRFTISRDTAKNTVYLQMNSLKPEDTAVYYCAAGRKHYAPVHFGYWGQGTQVTVSS | high polyreactivity
36 | QVQLVESGGGLVQAGGSLRLSCAASGFTFRSYDMGWYRQAPGKERELVAAISSTGRTYYADSVKGRFTISRDNAKNTVYLHMYSLNPEDTAVYYCARNIPVSYYRYGYWGQGSQVTVSS | high polyreactivity
37 | QVQLVESGGGLVQAGGSLRLSCAASGFTFRSYTMGWYRQAPGKERELVAAITSGGSTYYADSVKGRFTISRDNAKNTVYLQMNSLKPEDTAVYYCAVTYRWHTFIYDYWGQGTQVTVSS | low polyreactivity
38 | QVQLVESGGGLVQAGGSLRLSCAASGFTFRTNVMGWYRQAPGKERELVASISSTGSTNYADSVKGRFTISRDNAKNTVYLQMNSLKPEDTAVYYCARRYRYRYNYWGQGTQVTVSS | high polyreactivity
39 | QVQLVESGGGLVQAGGSLRLSCAASGFTFRTYAMGWYRQAPGKERELVAAITRNGGTYYADSVKGRFTISRDNAKNTVYLQMHSLNPEDTAVYYCATDPAYWGDQPPEYDYWGQGTQVTVSS | low polyreactivity
40 | QVQLVESGGGLVQAGGSLRLSCAASGFTFRVYAMGWYRQAPGKERELVAAISVRGDSTYYADSVKGRFTISRDNAKNTVYLQMNSLKPEDTAVYYCNAALLGKQYYSNPNYDYWGQGTQVTVSS | high polyreactivity
41 | QVQLVESGGGLVQAGGSLRLSCAASGFTFRWYAMGWYRQAPGKERELVAAIDWSGTTTYADSVKGRFTISRDNAKNTVYLQMNSLKPEDTAVYYCAAVFRRSGYASPYDYWGQGTQVTVSS | high polyreactivity
42 | QVQLVESGGGLVQAGGSLRLSCAASGFTFRYNAMGWYRKPPGKERELVAAITSGGNTNYADSVKGRFTISRDNAKNTVYLQMNSLKPEDTAVYYCNTAWRDYVARLGGVGYDYWGQGTQVTVSS | high polyreactivity
43 | QVQLVESGGGLVQAGGSLRLSCAASGFTFRYNAMGWYRQAPGKERELVAAISRGTITNYADSVKGRFTISRDNAKNTVYLQMNSLKPEDTAVYYCAARYPGHFRFYYWGQGTQVTVSS | high polyreactivity
